Test: soluble on expression in E. coli; label from the status in PepcDB or PDB records
In the case of “MKKTIYKCVLPLLICILLTGCWDRTEINDIAFVVSSAIDKKKDQYRVAMQIPLVGQLGGQTGGGGGTAGSKTWYVDSASGTTIREANNKLQTSLSRTINTSHRRTVIIGEDMARDGVAPVFDILTRNPQNRLTALILVSRGEARDILNTDVQLEQFPAEMIRELAIIATSRPVFLSRFMSDLVEIGSDPYAPVISASKTKPGGKGKSNLKIDGLAIFKKDRLMDIFKDEHMTAALMLLNQARQPEFIVDLPNQMGQASIQLQKSNASFHAAEKNGKLSMTIEIRAKGIIMENQSTYETRENDQYYIIQKALNRTIKKDVISTVHRLQKLKADPAGFQDRTIRSTATTKNLLKKEWEEVYKDMEVHVVPIVTIEQGGVLYKTISH”, the “soluble on expression in E. coli” value is reported as “not soluble”. With “MTTFERIKKLSAKKGITISQLTSELEMGENSIYRWKTQKPALDKLQKVADYFNVSIDYLLGRTDNPQIDSDIPPEATTLAAHIDPAATEEDMKKILEYIDFIQQKYK” the “soluble on expression in E. coli” value was “not soluble”. With “MKTVLAFGDSLTWGADPATGLRHPVEHRWPDVLEAELAGKAKVHPEGLGGRTTCYDDHAGPACRNGARALEVALSCHMPLDLVIIMLGTNDIKPVHGGRAEAAVSGMRRLAQIVETFIYKPREAVPKLLIVAPPPCVAGPGGEPAGGRDIEQS” the “soluble on expression in E. coli” value was “not soluble”. With “MFKIQEVRELIKLIDSSNIDEFEYKKDGTTIKMKKRGNEVVAVQAPVAKQAVQPVAPVEVETTVAAAQVEVPKQEEKKAVQNENLHKITSPMVGTFYSSSSSSPDTPPYVSVGDRVSKDSIVCIVEAMKLFNEIDADVDGEIVEILVNNGQLVEYGQPLFLVKA” the “soluble on expression in E. coli” value was “not soluble”. With “MSPHYLRQVKESSGSRLIQQRLLHQQQPLHPEWAALAKKQLKGKNPEDLIWHTPEGISIKPLYSKRDTMDLPEELPGVKPFTRGPYPTMYTFRPWTIRQYAGFSTVEESNKFYKDNIKAGQQGLSVAFDLATHRGYDSDNPRVRGDVGMAGVAIDTVEDTKILFDGIPLEKMSVSMTMNGAVIPVLANFIVTGEEQGVPKEKLTGTIQNDILKEFMVRNTYIFPPEPSMKIIADIFEYTAKHMPKFNSISISGYHMQEAGADAILELAYTLADGLEYSRTGLQAGLTIDEFAPRLSFFWGIGMNFYMEIAKMRAGRRLWAHLIEKMFQPKNSKSLLLRAHCQTSGWSLTEQDPYNNIVRTAIEAMAAVFGGTQSLHTNSFDEALGLPTVKSARIARNTQIIIQEESGIPKVADPWGGSYMMECLTNDVYDAALKLINEIEEMGGMAKAVAEGIPKLRIEECAARRQARIDSGSEVIVGVNKYQLEKEDTVEVLAIDNTSVRNRQIEKLKKIKSSRDQALAERCLAALTECAASGDGNILALAVDASRARCTVGEITDALKKVFGEHKANDRMVSGAYRQEFGESKEITSAIKRVHKFMEREGRRPRLLVAKMGQDGHDRGAKVIATGFADLGFDVDIGPLFQTPREVAQQAVDADVHAVGVSTLAAGHKTLVPELIKELNSLGRPDILVMCGGVIPPQDYEFLFEVGVSNVFGPGTRIPKAAVQVLDDIEKCLEKKQQSVAENLYFQSHHHHHHDYKDDDDK” the “soluble on expression in E. coli” value was “soluble”. With “MEKAYKILSVQENISHKKAKALIDSGLVSIGGKKLMVARKELPKNTHFSVQKVEKPSVIFEDENILALFKPPFIESYDLASFFKGWALLHRLDKETSGVVLLVKENSEFHLKAKKAFKDRAVKKEYLALTQGIIEEEREINAPILTFKTTKAFSKISKKGQEAVTIITPLKIINKKTLLKVGIKTGRTHQIRVHLKHINHPIIGDTLYNNEPSLAKRLMLHAHKIALLGYEFEAIAPKEFEILEHHHHHH” the “soluble on expression in E. coli” value was “soluble”. For “MGSDKIHHHHHHMPSIQELENFIIYGKVRNFTLAANQANITQSAFSFQMKKLEETLGVKLILRSNRGSSLTPEGEIFYKKISEILPELVGVIYEFQQINGEKAIELKVGVLTSLGDILMNQHVNYFQKNKNILITVYSMEKNELIRALNNGKIDIASTFLFDDETLENFEKSLFRKDKIVYYAPKIKEISGTIKRDNMLKVPLVKYPPDNFMNKMIDQYFNIERKMPTVAAKLPSPYAFIEYCKQDTAGAFITERLLNTLGFKYKQEYFNIDPPYEIKAFLLYKKENPKYSAIKIFTDYVVKLNQRDS”, the “soluble on expression in E. coli” value was “not soluble”. For “GSPGISGGGGGILMDVNVGLSRLQSQAGAPVGTKGSNTRLAAKQRETLQAYDYLCRVDEAKKWIEECLGTDLGPTSTFEQSLRNGVVLALLVQKFQPDKLIKIFYSNELQFRHSDNINKFLDFIHGIGLPEIFHFELTDIYEGKNLPKVIYCIHALSYFLSMQDLAPPLIKSDENLSFTDEDVSIIVRRLRQSNVILPNFKAL”, the “soluble on expression in E. coli” value was “soluble”. In the case of “MGSDKIHHHHHHLDDLSEFVDQVPLLDHHCHFLIDGKVPNRDDRLAQVSTEADKDYPLADTKNRLAYHGFLALAKEFALDANNPLAAMNDPGYATYNHRIFGHFHFKELLIDTGFVPDDPILDLDQTAELVGIPVKAIYRLETHAEDFMLEHDNFAAWWQAFSNDVKQAKAHGFVGFKSIAAYRVGLHLEPVNVIEAAAGFDTWKHSGEKRLTSKPLIDYMLYHVAPFIIAQDMPLQFHVGYGDADTDMYLGNPLLMRDYLKAFTKKGLKVVLLHCYPYHREAGYLASVFPNLYFDISLLDNLGPSGASRVFNEAVELAPYTRILFASDASTYPEMYGLAARQFKQALVAHFNQLPFVDLAQKKAWINAICWQTSAKLYHQERELRV”, the “soluble on expression in E. coli” value is reported as “not soluble”. With “MSLGEPEELVIGGVFSLSSGTSVEACRQALAGAMAAVEWVNSNGGVNIGGSKVPVRLLQEDDKGDPANAVRLIEYMARQRGVGVMLAPCDPGVLVDAVEAARGYGVVSIVYGDAPASVADPGGKTLLVGAPAEEYFTPVLEMVSILDIQSRNLAIVYQDTGFAAAVAEATRNRAVEQGFVVVLYSAYPPQAGEEELGTLALRLQASNPDVIIAIGGFRDGVELVRAMSSYGVEAKFIAMAVAPSVPEFYSELGALSQAILYPTLWELASKPYTTAEGYEWFGPSREEFYSLFREAIESLGHPVSEPGYHAAMAALAVLAVAKAAEEAGSLDPDAIYESLKNIKIMTFAGPFDLNPETGLQNEREVLVGQWINGRRFTVWPVGQAYATPVYPHEGHHHHHH” the “soluble on expression in E. coli” value was “soluble”. In the case of “MPNPRRIVFGDVHGHFDALTALFEAIAPNERDGVYFVGDLIDRGPESAKVVDFVMENKYHCLLGNHEQMMLDAVGGFNFSPQLLHAWIYSGGKSTLESYEHQIPQSHVDWMRNLPLYLDLGDVWLVHAGVDPRLPIEEQGEAQFCWIRDEFHRYPYPYFANKLIITGHTITFTFANVEPGKLVSGPGWLDIDTGAYHPKSGWLTALELNNQEVYQAHIFTNEVRRLPLEDAVVPLPPQNLHRLEHHHHHH”, the “soluble on expression in E. coli” value is reported as “not soluble”. In the case of “MSEILVLNCGSSSVKFALINPHTSQSLVTGLAENIATKNCKVVFKAEHKIVKYLENGSYKDVFEMLKDFLVENKHLEKIVAIGHRVVHGGQYFSKSVLINADSLEKIKACIALAPLHNPAHIEGIRFCQQIFPELPQVAVFDTAFHQTMPSYIAEYAIPYELTHKHNIRKYGAHGTSHKYVSEQAAKILTQQKANVIVAHLGNGCSITAVVDGKSIDTSMGLTPLDGLVMGTRSGCIDPSIFAYISDNLGWSVTEITNMLNKQSGLLGICGHNDMREVSQLAAKGDSLAKLAIEIFSHRVAKFVASYMIYFNKLDALVFTGGIGENAANIRKNIISKLANLGFMIDHQKNSNSETFINSKNSHNIMVIATNEELMIAQETQNLI”, the “soluble on expression in E. coli” value is reported as “soluble”. In the case of “GAMGSDFLLGNPFSSPVGQRIEKATDGSLQSEDWALNMEICDIINETEEGPKDALRAVKKRIVGNKNFHEVMLALTVLETCVKNCGHRFHVLVASQDFVESVLVRTILPKNNPPTIVHDKVLNLIQSWADAFRSSPDLTGVVTIYEDLRRKGLEFPM”, the “soluble on expression in E. coli” value is reported as “soluble”. For “MGSDKIHHHHHHQPSSNRYARVDAAILSIPDEYTKKVDTFAEYINRKFKGDEAKMRAIYVWMTHRMAYNVFTTFTSRNEVYSEEKEVQETLSTRKGVCRQFALLFKTLAGKVGIKAYLIDGYGKSGNVVLPEVHEWCVAQVNGEWYFFDPTYDTGYIEDYRFVSAPDDVYFKQLPERFIQTHMPFDPLWQFLKRPYSYSEFEKGVLESGRNVPFFCWQDSLKVYDRQSWVEQLEAARSRILANGKGNDLVDYFLQLNQANTQVGKDSEAIDVYAAATDLQNRAVDSINVFIRYRKAGFRPRKAEAQVRRMIEVSEELTLRADSLINSVHTISPQYKQALLNLRESIMDLAMQIYKHKLFLERYYATKPSLRGNLLRR”, the “soluble on expression in E. coli” value was “not soluble”. In the case of “MGSDKIHHHHHHVKQQRKEIQVLDRLNQAMEYIERHLDQRIEGAELAQIAATSEYHMRRLFSALAGMPLSEYIRRRRLTVAGAEVLAGDRTLLDIAVRYGYGSAEAFARAFRAMHGVGPGEARRTGAPLRSQPRMSFRLVVEGSTDMRYRIVEKDAFQVVGKKARVPLVYEGPNPAIVEFVRSIDPGTLQRLAELSDQEPRGVVAAVANIAGERVSAPEGTELDYYHGVVTSAPAPEDMAVLPVAAGLWAVFEVEGEAPYAIQYLWRDVFTQWFPANPYQSVPGPELLRTTMSQDGAYVEAELWVPVERVER”, the “soluble on expression in E. coli” value is reported as “not soluble”. For “MGSDKIHHHHHHMSEAKMAESDGLRVLIDEPFYQPVANEVRVFLAAWDRRLPVMLKGPTGCGKTRFLEHMAWRLKRPLVTVACHEDLTSSDLIGRFLIEGNETVWQDGPLTRAVREGAICYLDEIVEARTDTTVVIHPLTDHRRHLPIEKLGIEITAHRDFMLVISYNPGYQTVLKDLKPSTKQRFVGMNFNYPPADVETCIVMKEAGVDEGRAKALVAAAGKARNLKEQGLQEVTSTRALIYAGALMVAGLDALEACVVAIIHPQTDDPELAEALLEIFRTFFPEQG”, the “soluble on expression in E. coli” value was “not soluble”. With “MGSDKIHHHHHHMLKNSAKNFVENIEKKLYLSIKEKTDSITFKLEKVLKAFSDSHLNVQHFASLTGYGHGDLGRDIIDKIFANVLDAEKAAVRLQLVSGTHAITSSLFGVLRPGDGLLSVTGRPYESLEEVIGLRGNGKGSLIEFGIAYEEISLKDDGNIDFLALEKALKIPRKLIFIQRSCGYTWRPSLSIEVIKEICYLCHKIQPNCICFVDNCYGEFVETNEPTSVGADLIAGSLIKNLGGTIVPTGGYIAGKADLVDKACCRLTAPGIGSEGGITFDLNRTILQGLFLAPQMVSEALIGAEIISTSFSELGFKVLPTPASKRTDLIQIVRIGDPKILQIICRSFQEKSPIGSFLDPIPAPMPGYENNLVMAGGTFVDGSTSEFSADAPMKPPFDLFIQGGSHRAHVKIALIHALSNLFQAGLIKLPQND” the “soluble on expression in E. coli” value was “not soluble”. For “MKTFEVMIQTDSKGYLDAKFGGNAPKAFLNSNGLPTYSPKISWQKVEGAQSYALELIDHDAQKVCGMPFVHWVVGNIAHNVLEENASMMDKRIVQGVNSLTQGFIRSPLNESEKQRSNLNNSVYIGPMPPNGDHHYLIQVYALDIPKLALKAPFFLGDLHDKMRNHIIAIGRKEFLYKQFVRK”, the “soluble on expression in E. coli” value was “soluble”. With “MSRKKMGLLVMAMGTPYKEEDIERYYTHIRRGRKPEPEMLQDLKDRYEAIGGISPLAQITEQQAHNLEQHLNEIQDEITFKAYIGLKHIEPFIEDAVAEMHKDGITEAVSIVLAPHFSTFSVQSYNKRAKEEAEKLGGLTITSVESWYDEPKFVTYWVDRVKETYASMPEDERENAMLIVSAHSLPEKIKEFGDPYPDQLHESAKLIAEGAGVSEYAVGWQSEGNTPDPWLGPDVQDLTRDLFEQKGYQAFVYVPVGFVADHLEVLYDNDYECKVVTDDIGASYYRPEMPNAKPEFIDALATVVLKKLGR” the “soluble on expression in E. coli” value was “soluble”. For “MASDWRRQSTSRGIPNEGQNDEKGKPLIGRSFLLEIENRILRTNVAEGLHISGATIIDSFDDASPQCVISDHPMAQKLEKAKKDDPLFKNEKMLKIMPALLRQAVNRNIKVRTPERFLNQMNTWLDRQGKTTSATTSNSTIRGKPSFGRENSAKIERTTPRLVPRMPRVSSDQTSSRPKEERCFLRIDVPGKRPEIRNVSKESFSIVYSGRDTGFSIFKAAESSLVERRQREYDSFLKGKYEPSKKTFKFDERDNYCQFCQKTILGDRKDHERTDEHRNKARTQGITQTMERIVLNARLRAERQEAALKRNQRKSRESVMFVEKSKRANVEYEYGENEIKANWLMLKANTVEKTTEKTSILSPRRRQKRMRSLSSQGDI”, the “soluble on expression in E. coli” value was “not soluble”.

Reference: the DeepSol protein solubility set
